Experiment [1] addresses A. fulgidus humanized ferritin (chimeric ferritin: Archaeoglobus fulgidus ferritin with a grafted surface loop of human H ferritin) (Archaeoglobus fulgidus). The experiment is described as follows: SEC; HP-SEC, no MgCl2; open HumFt 5 mg/mL (10 uM 24-mer) added to G3, G4 or G5 PAMAM at HumFt:PAMAM 1:10, 1:20, 1:30; mobile phase 20 mM HEPES pH 7.4; UV 220 nm; dimers to 24-mer.

Experiment [2] shares this target. The experiment is described as follows: SEC; HP-SEC of HumFt with divalent cations only (no PAMAM); dimers to 24-mer. (In general: SEC sorts molecules by how far they enter the pores of the column.)
Experiment [3] has the same target. The experiment is described as follows: negative staining electron microscopy; TEM, HumFt 0.02 mg/mL in HEPES buffer without magnesium ions; 2% uranyl acetate or 4% ammonium molybdate.
Experiment [4] has the same target. The experiment is described as follows: negative staining electron microscopy; TEM, HumFt 0.02 mg/mL with 50 mM Mg2+ and/or G4 PAMAM; 2% uranyl acetate or 4% ammonium molybdate.
Experiment [5] shares this target. The experiment is described as follows: SEC; HP-SEC of the HumFt-G4 PAMAM/FITC nanoparticle; mobile phase 20 mM HEPES pH 7.4 with 50 mM MgCl2; UV 220 nm and fluorescence; dimers to 24-mer.
Experiment [6] has the same target. The experiment is described as follows: SEC; HP-SEC of the HumFt-PAMAM nanoparticle after up to 24 h at 37 °C in 20 mM HEPES with 50 mM MgCl2, in PBS, or in RPMI 1640 with 10% FCS.

Bounds are passed on as bounds.

What is called stoichiometry N is the number of molecules, sites or subunits per partner or assembly. Consider “A. fulgidus humanized ferritin (chimeric ferritin: Archaeoglobus fulgidus ferritin with a grafted surface loop of human H ferritin)”, for which the stoichiometry N stood at 24 in experiment [1], 2 in experiment [3], 24 in experiment [4] and 24 in experiment [5]. The percent dimeric form was 10 to 15% in experiment [2] and less than 2% in experiment [5]. In experiment [6], the percent 24-mer is more than 95%.

The values above are taken from PMC8190868.
